Experimental data as given in patent publication US20220340642A1 (Kyowa Kirin, published 2022).

T1: membrane-bound human FasL (Met and FLAG tag at the N-terminus) on CHO-K1 cells (human, UniProt P48023 2-281)
T1 construct: also called FasL/CHO
T1 sequence: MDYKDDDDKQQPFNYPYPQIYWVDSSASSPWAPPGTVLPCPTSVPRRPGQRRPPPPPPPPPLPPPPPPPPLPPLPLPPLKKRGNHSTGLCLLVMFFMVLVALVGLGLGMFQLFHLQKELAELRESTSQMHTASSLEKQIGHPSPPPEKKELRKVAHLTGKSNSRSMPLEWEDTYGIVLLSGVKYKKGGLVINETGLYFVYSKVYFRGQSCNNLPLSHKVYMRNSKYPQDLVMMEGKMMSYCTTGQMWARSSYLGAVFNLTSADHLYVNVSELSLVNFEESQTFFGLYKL

T2: primary soluble FasL produced from human T cells stimulated for AICD (human, UniProt P48023 130-281, limits assumed)
T2 construct: also called soluble FasL derived from human T cells
T2 sequence (looked up): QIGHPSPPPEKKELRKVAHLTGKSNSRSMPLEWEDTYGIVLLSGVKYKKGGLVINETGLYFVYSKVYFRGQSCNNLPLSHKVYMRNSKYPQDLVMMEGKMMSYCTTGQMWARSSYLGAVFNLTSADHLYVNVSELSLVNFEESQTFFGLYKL


Key:
[1] = target: T1, membrane-bound human FasL (Met and FLAG …); test: flow cytometry on expressing cells
In short: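 Binding was measured by flow cytometry on HEK293 cells forced to express membrane-bound LIGHT and on cell lines expressing N-terminally Met/FLAG-tagged TL1A or FasL from a CMV-promoter pClpuro vector. Cells at 1×10⁵ cells/well received 1 or 10 μg/mL protein on ice for 1 hour. After washing, cells were stained on ice for 1 hour with LIVE/DEAD Fixable Aqua and R-phycoerythrin goat F(ab′)₂ anti-human IgG (10 ng/mL, 0.1 or 1 μg/mL). Fluorescence was read on a FACS Fortessa.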

[2] = target: T2, primary soluble FasL produced from …; test: sandwich ELISA, binder captured
Protocol: (§1) Then, 10 μg/mL of anti-human IgG antibodies (American Qualex International, Inc.) were immobilized to a 96-well immunoplate (Thermo Scientific), and blocking was performed with 2% Block Ace (DS Pharma Biomedical Co., Ltd.), and then 2 μg/mL of chimera A-Fc, E57K-Fc and 45-18-Fc (in all of which Fc is Eg1S YTE or Eg1S […]) were captured. The culture supernatant of human T cells stimulated for LIGHT production was concentrated 6-fold using Amicon Ultra-15 having a molecular weight cutoff of 3 kDa (Merck Millipore) prerinsed with sterile water. After the plate was washed, the 6-fold concentrated culture supernatant was reacted. As a standard of LIGHT, the soluble recombinant FLAG-LIGHT trimer produced in Example 13 was used. After the plate was washed, a biotinylated anti-LIGHT antibody (R&D Systems, Inc.) was reacted. After the plate was washed, streptavidin-HRP (PIERCE) was reacted. After washing again, a TMB solution (Dako) was added to develop a color. Then, a 2 N sulfuric acid solution was used to stop the chromogenic reaction, and the absorbance at 450 nm (reference wavelength of 570 nm) was measured.
(§2) Sandwich ELISA was performed by the same method as in (1). On a 96-well immunoplate, chimera A-Fc, E57K-Fc and 45-18-Fc (in all of which Fc is Eg1S YTE or Eg1S […]) or the anti-human TL1A antibody produced in Example 16 was captured. Then, with the plate, a 4-fold concentrated culture supernatant of PBMCs stimulated for TL1A production or as a standard, the soluble recombinant His6-TL1A trimer produced in Example 13 was reacted, followed by detection with a biotinylated anti-TL1A antibody (R&D Systems, Inc.).
(§3) Sandwich ELISA was performed by the same method as in (1). On a 96-well immunoplate, chimera A-Fc, E57K-Fc and 45-18-Fc (each including Eg1S YTE or Eg1S […] as an Fc) or Fas-Fc (R&D Systems, Inc.) was captured, and then a 6-fold concentrated culture supernatant of human T cells stimulated for AICD or as a standard, Human His6 Fas Ligand/TNFSF6 (Cell Signaling Technology, Inc.) was reacted, followed by detection with a biotinylated anti-FasL antibody included with Human Fas Ligand ELISA Kit (Abcam plc).

[3] = target: primary soluble LIGHT produced from activated human T cells (human, UniProt O43557 83-240, limits assumed); test: sandwich ELISA, binder captured
Chain of primary soluble LIGHT produced from activated human T cells (O43557 83-240 limits assumed): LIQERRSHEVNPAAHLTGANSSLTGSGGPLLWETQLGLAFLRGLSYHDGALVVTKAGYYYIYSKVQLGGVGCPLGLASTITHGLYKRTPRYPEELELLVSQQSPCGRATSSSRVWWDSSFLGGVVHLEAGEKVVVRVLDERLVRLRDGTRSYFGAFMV
Protocol: as §1, §2, §3

binding result [1]	binding result [2]	binding result [3]	Binder
binds	binds	binds	chimera A-E57K_R58E-Fc (Eg1S LALAGANA) (Fc fusion) ETFPPKYLHYDEETSHQLLCDKCPPGTYLKQHCTAKWKTVCAPCPPRHYTQFWNYLKECRYCNVLCGEREEEARACHATHNRACRCRTGFFAHAGFCLEHASCPPGAGVIAPGTPSQNTQCQPCPDGFFSNETSSKAPCRKHTNCSVFGLLLTQKGNATHDNICSGNSESTQKEPKSSDKTHTCPPCPAPEAAGAPSVFLFPPKPKDTLMISRTPEVTCVVVDVSHEDPEVKFNWYVDGVEVHNAKTKPREEQYNSTYRVVSVLTVLHQDWLNGKEYKCKVSNKALPAPIEKTISKAKGQPREPQVYTLPPSRDELTKNQVSLTCLVKGFYPSDIAVEWESNGQPENNYKTTPPVLDSDGSFFLYSKLTVDKSRWQQGNVFSCSVMHEALHAHYTQKSLSLSPGK
binds	binds	binds	chimera A-E57K-Fc (Eg1S LALAGANA) (Fc fusion) ETFPPKYLHYDEETSHQLLCDKCPPGTYLKQHCTAKWKTVCAPCPPRHYTQFWNYLKRCRYCNVLCGEREEEARACHATHNRACRCRTGFFAHAGFCLEHASCPPGAGVIAPGTPSQNTQCQPCPDGFFSNETSSKAPCRKHTNCSVFGLLLTQKGNATHDNICSGNSESTQKEPKSSDKTHTCPPCPAPEAAGAPSVFLFPPKPKDTLMISRTPEVTCVVVDVSHEDPEVKFNWYVDGVEVHNAKTKPREEQYNSTYRVVSVLTVLHQDWLNGKEYKCKVSNKALPAPIEKTISKAKGQPREPQVYTLPPSRDELTKNQVSLTCLVKGFYPSDIAVEWESNGQPENNYKTTPPVLDSDGSFFLYSKLTVDKSRWQQGNVFSCSVMHEALHAHYTQKSLSLSPGK
binds	binds	binds	chimera A-E57K-Fc (Eg1S YTE) (Fc fusion) ETFPPKYLHYDEETSHQLLCDKCPPGTYLKQHCTAKWKTVCAPCPPRHYTQFWNYLKRCRYCNVLCGEREEEARACHATHNRACRCRTGFFAHAGFCLEHASCPPGAGVIAPGTPSQNTQCQPCPDGFFSNETSSKAPCRKHTNCSVFGLLLTQKGNATHDNICSGNSESTQKEPKSSDKTHTCPPCPAPELLGGPSVFLFPPKPKDTLYITREPEVTCVVVDVSHEDPEVKFNWYVDGVEVHNAKTKPREEQYNSTYRVVSVLTVLHQDWLNGKEYKCKVSNKALPAPIEKTISKAKGQPREPQVYTLPPSRDELTKNQVSLTCLVKGFYPSDIAVEWESNGQPENNYKTTPPVLDSDGSFFLYSKLTVDKSRWQQGNVFSCSVMHEALHNHYTQKSLSLSPGK
